Test results from the supplement of paper PMC9170038.

Key:
[1] = test system: MS2 coat protein; experiment: apparent KD of MS2 coat protein, switch ON state; designed switch direction (-1 OFF switch, 1 ON switch): 1; higher = weaker reporter binding; conditions: FMN input: 0 or 200 uM; Eterna round: R93 (includes R88 designs)
Procedure, shortened: (§1)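 Apparent KD was obtained for each design as the median of normalised binding-curve fits over its clusters. RNA switches transcribed on-chip from Illumina sequencing clusters were titrated with SNAP-549-labelled MS2 coat protein (twofold steps, 0.7 or 1.5 nM to 3 µM) in 100 mM Tris-HCl pH 7.5, 80 mM KCl, 4 mM MgCl2, without or with constant ligand.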

[2] = test system: MS2 coat protein; experiment: apparent KD of MS2 coat protein, switch OFF state (with FMN for OFF switches, without FMN for ON switches); designed switch direction (-1 OFF switch, 1 ON switch): 1; higher = weaker reporter binding; conditions: FMN input: 0 or 200 uM; Eterna round: R93 (includes R88 designs)
Procedure, shortened: as §1

Sequence | apparent KD of MS2 coat protein [1] | apparent KD of MS2 coat protein [2]
AGAAAUAAAAGAGAGGAUAUCCAAAACAAAACAUGAGGAUCACCCAUGUGAAAGAAAAUAAAAUGGGAGAAGGCUCAAAAUAAAG [Topaz 8] | 0.00835 µM | 0.0704 µM
AGAAAUAAAAGAGAGGAUAUUCAAAAAGGGACAUGAGGAUCACCCAUGUAAAAGAAAAUAAAAUGGGAGAAGGCUCAAAAUAAAG [80%, More Helter Skelter 2] | 0.0855 µM | 0.0617 µM
AGAAAUAAACCUCAGGAUAUGGGUAAGAAAACAUGAGGAUCACCCAUGUAAAAGAAAAUAAAAAACCAGAAGGGAGAAAAUAAAG [Reversing G segment in JL's winner (80%) Variant 2] | 0.0313 µM | 0.0413 µM
AGAAAUAAAUCUCAGGAUAUGGGUAAAUAAACAUGAGGAUCACCCAUGUAAAAGAAAAUAAAAAACCAGAAGGGAGAAAAUAAGA [Designing denovo 2] | 0.0162 µM | 0.0392 µM
AGAAGACAUGAGGAUCACCCAUGUGGGAAUAUGGGAGGAUAUACAAAGACGAGAGUCAGAGUAGAAGGCCUAGGAC [salish99-ss1-94] | 0.0305 µM | 0.081 µM
AGAAUAAAAAGACAGGAUAUCCAAAAGAAAACAUGAGGAUCACCCAUGUAAAGAAAAGAAAAAUGGGAGAAGGGUCAAAAUAAGA [Mat - Same State 2 - JL mod - D59] | 0.0204 µM | 0.0563 µM
AGACAUAACAGAGAGGAUAUCCAAAAGAAAACAUGAGGAUCACCCAUGUGAAAGAAAAUAAAAUGGGAGAAGGCUCACAUACAGA [Topaz 37] | 0.02 µM | 0.039 µM
AGCAUAGACAGAGAGGAUAUCCACGAGACAACAUGAGGAUCACCCAUGUGAAAGAGAAUACGAUGGGAGAAGGCUCGCGAUACGA [Topaz 49] | 0.0134 µM | 0.0197 µM
AGCAUAGACAGAGAGGAUAUCCACGAGACAACAUGAGGAUCACCCAUGUGAUAGAGAAUACGAUGGGAGAAGGCUCGCGGUACGA [Topaz 50] | 0.0139 µM | 0.0613 µM
AGGAAACAUGAGGAUCACCCAUGUAAAAAAUAUGGAGGAUAUGGAAACACGAAAGUGAAACCAGAAGGCUAAAAAA [77%, Mat - Mod of Eli, 24] | 0.017 µM | 0.0269 µM
AGGAAACAUGAGGAUCACCCAUGUAAAAAUAUGGGAGGAUAUACAAAGACGAAAGUAAGAGUAGAAGGCCUAAAAG [Garnet 16] | 0.0313 µM | 0.15 µM
AGGAAACAUGAGGAUCACCCAUGUAAAAAUAUGGGAGGAUAUAGAAAGACGAAAGUCAAACUAGAAGGCCUAAAAG [Garnet 5] | 0.0161 µM | 0.0833 µM
AGGAAACAUGAGGAUCACCCAUGUAAAAAUAUGGGAGGAUAUGGAAACACGAAAGUGAAACCAGAAGGCCCGAAAA [77%, Mat - Mod of Eli, 18] | 0.0171 µM | 0.0239 µM
AGGAAACAUGAGGAUCACCCAUGUAAAAGGUGGGUAGGAUAUGCGAAAAGAAAAAGAAAAGCAGAAGGGCCAAGAA [something completely different] | 0.0419 µM | 0.133 µM
AGGAAACAUGAGGAUCACCCAUGUAGAAAAAUGGGAGGAUAUACAAAGACGAAAGUCAAAGUAGAAGGCCUAAAAG [76%, Meechl, 6] | 0.0145 µM | 0.0458 µM
AGGAAACAUGAGGAUCACCCAUGUAGAAAUAUGGGAGGAUAUACAAAGACGAAAGUCAAAGUAGAAGGCCUAAAAG [76%, Meechl 1] | 0.0228 µM | 0.063 µM
AGGAAACAUGAGGAUCACCCAUGUCUAAAUAUGGGAGGAUAUGCACAAAAGGAAAUAACUGCAGAAGGCCUAAAAA [62%, Redo, 4] | 0.0173 µM | 0.103 µM
AGGAGACAUGAGGAUCACCCAUGUGAGAAGAGGCGAGGAUAUCGAAAGAAAGAAGAGAAACGAGAAGGCGCGAGAA [salish99-SS1-017] | 0.015 µM | 0.0303 µM
AGGAGACAUGAGGAUCACCCAUGUGAGAAGAGGCGAGGAUAUCGAAAGAAAGAAGAGAAACGAGAAGGCGCGAGGC [salish99-SS1-031] | 0.027 µM | 0.0235 µM
AGGAGACAUGAGGAUCACCCAUGUGCACGUGGACGAGGAUAUGCUAGUAGAAGAUAGAAUGCAGAAGGCGUAAGAA [Mod of JR] | 0.0484 µM | 0.0299 µM
AGUCCACAUGAGGAUCACCCAUGUCUGGAGAAGACAGGAUAUAAGGAAAAAAAAAAAAACUUAGAAGGGUCAAAAA [Bexeusisus] | 0.0268 µM | 0.0495 µM
AUAAAACAUGAGGAUCACCCAUGUAGACAUAUGGGAGGAUAUACUAGAUCGAAAGAUCUAGUAGAAGGCCUUUAUA [JL Mod of Eli 8] | 0.0192 µM | 0.0542 µM

Sequence | apparent KD of MS2 coat protein [1] | apparent KD of MS2 coat protein [2]
AUAAAACAUGAGGAUCACCCAUGUGAAAACGUGGGAGGAUAUACGUAGACGAAAGUCGACGUAGAAGGCCUAAAAG [Same State 1.4n.1 (Mat - Mod of Eli - )] | 0.119 µM | 0.197 µM
AUAAAAGAAGCGAAGGAUAUCCAAAAACCAACAUGAGGAUCACCCAUGUAAAGAAAGAAAAAAUGGGAGAAGGUCGCAAAGAAUA [73%, More Fisker Same State 2, D3, 8] | 0.0118 µM | 0.0177 µM
AUAAAAGAAGCGAAGGAUAUCCAAAGAACCACAUGAGGAUCACCCAUGUAAAGAAAGAAAAAGUGGGAGAAGGUCGCAAAGAAUA [73%, More Fisker Same State 2, D3, 5] | 0.0266 µM | 0.0537 µM
AUAAAUAAAAUCGAGGAUAUCCAAAAAAAAACAUGAGGAUCACCCAUGUAAAAGAAAAUAAUAUGGGAGAAGGCGAAAAAUAAAU [SS2 M 5] | 0.0368 µM | 0.0592 µM
AUAAAUAAUGGUAAGGAUAUCCAAAAGAAAACAUGAGGAUCACCCAUGUAAAAGAAAAUAGUGUGGGAGAAGGUACCAUAUAAAU [SS2 M 15] | 0.0186 µM | 0.0416 µM
AUAACACAUGAGGAUCACCCAUGUAGAAACAAGUCAGGAUAUGCGACCUCAUGAAAUAAAGCAGAAGGGACACUAA [SS 1 Tesla 5] | 0.0315 µM | 0.15 µM
AUAAGACAUGAGGAUCACCCAUGUAUUAGAGCAUGAGGAUAUAUGAAUAGUAAUAGGAGGAUAGAAGGCAUGGUUG [JR_SS001_Sub1218] | 0.0926 µM | 0.138 µM
AUAAUAAUAAGAUAGGAUAUACUAAAGUAAACAUGAGGAUCACCCAUGUAAAGAAAAAAACUCAUGUAGAAGGGUCAUAAAUAAA [moonwalk 1] | 0.0463 µM | 0.0486 µM
AUAUAUAAAAGGUAGGAUAUUCUAAAAUAAACAUGAGGAUCACCCAUGUAAAAAAAGAAACUCAUGGAGAAGGACCAUAUAUAUA [ss2 6th modifying Eli's mod of Tesla] | 0.0315 µM | 0.0445 µM
AUAUAUAUAAGGUAGGAUAUCCAAUAAACCACAUGAGGAUCACCCAUGUAAAGAAAGAAAAAAUGGGAGAAGGACCAUAUAUAUA [77%, More Tesla, 6] | 0.0154 µM | 0.0275 µM
AUAUAUAUAAGGUAGGAUAUCCAAUAAUCCACAUGAGGAUCACCCAUGUAAAGAAAGAAAAAGUGGGAGAAGGACCAUAUAUAUA [77%, More Tesla, 7] | 0.0176 µM | 0.034 µM
AUAUAUAUAAGGUAGGAUAUGCUAAAGUAAACAUGAGGAUCACCCAUGUAAAGAAAGAAACUCAUGUAGAAGGGCCAUAUAUAUA [viburnum 6] | 0.163 µM | 0.408 µM
AUAUGACAUGAGGAUCACCCAUGUAUUCGAGCAUGAGGAUAUAUGACUAGUCAUAGGAGGAUAGAAGGCAUGGUUG [JR_SS001_Sub1217] | 0.0762 µM | 0.169 µM
AUAUGGGCCCAUCAGGAUAUGUUCGGCGGAACAUGAGGAUCACCCAUGUGACAAAAGACGCCCACGCAGAAGGGAUUACAGGCAA [Anistera] | 0.022 µM | 0.0497 µM
AUGAUACAUGAGGAUCACCCAUGUCACCUCACACGAGGAUAUCUGUGCAGUACUCAGUACGGAGAAGGCGUGGAAA [Same State 1.2d (Same State of Confusion2 - KL)] | 0.0202 µM | 0.0781 µM
AUGGUCAAGUGUGAGGAUAUCCAUGCUCCCACAUGAGGAUCACCCAUGUCUUAAAGGGCGUAAAGGGAGAAGGUACGAACGCCAC [Edatxein] | 0.0407 µM | 0.0783 µM
AUUAGACAUGAGGAUCACCCAUGUAGGCAGUCAUGAGGAUAUGGACAAGGUGCUCAAGGUCCAGAAGGCAUACGCC [Maxeus] | 0.0148 µM | 0.0576 µM
AUUUAACAUGAGGAUCACCCAUGUAGGAAUACUGCAGGAUAUCGACACGAAAAUACGUGUCGAGAAGGGCAUGAAA [SS1 MT 25] | 0.0138 µM | 0.022 µM
CAGGACCUAGGAUAGGAUAUAUGAAUAAUUACAUGAGGAUCACCCAUGUCCAUUUAUAUGGGAACAUAGAAGGGUUCUGGUUAUG [Mat - Same state - Malcolm Mod - D134] | 0.0208 µM | 0.0503 µM
CAUCAACAUGAGGAUCACCCAUGUCAUUGAUGUCAAGGAUAUGGGAGACAUAAAAUUCUUCUAGAAGGUGAAAGAU [Mainuson] | 0.636 µM | 0.176 µM
CGAAAGGAGAGAGAGGAUAUCCAAAGGAAAACAUGAGGAUCACCCAUGUAGAAGGUAGGAGAUUGGGAGAAGGCUCAAGAAAGAG [salish99-ss2-144] | 0.023 µM | 0.0275 µM
